Here are results for 2 molecules from patent US11976099B2, “Compositions and methods for treatment of bone associated diseases” (THE NATIONAL INSTITUTE FOR BIOTECHNOLOGY IN THE NEGEV LTD., priority 2016, dated 2024).

In experiment [1] the test system is c-FMS and αvβ3 integrin. Nature of the experiment: YSD binding of M-CSFRGD variants to c-FMS and αvβ3 integrin, alone and simultaneously. On the set-up: species or system human. Here is the method:
(§1) For expressing the M-CSFM gene and the two M-CSFRGD libraries on the yeast surface, the SDCAA medium was replaced by SGCAA medium (2% galactose, 0.67% yeast nitrogen base, 0.5% bacto casamino acids, 1.47% sodium citrate, 0.429% citric acid monohydrate) and the yeasts were incubated overnight at 30° C. until the culture reached OD600=10.0 (10^8 cells per ml). A number of cells equal to ten times the library size was added to 1 ml of PBS containing 1% bovine serum albumin (PBSA); the suspension was centrifuged, and the supernatant was removed. For binding analysis of M-CSFM and the M-CSFRGD libraries to c-FMS, yeast cells were incubated with mouse anti c-myc antibody, 9E10 (Abcam, Cambridge, MA, USA) in a 1:50 ratio and different concentrations of soluble Fc conjugated human c-FMS (R&D systems, USA) for 1 h at room temperature. […]
To identify the high αvβ3 integrin and c-FMS binders, 25 different clones from sort 4 and 25 different clones from sort 5 were tested for binding to 20 nM of αvβ3 integrin, as described in the flow cytometry sorting section. […] To determine the binding specificity to other RGD binding integrins, namely α4β7, […], α5β1 and αvβ5 (BioLegend, USA), the three chosen M-CSFRGD variants (4.22, 4.24 and 5.6) were analyzed for binding to 250 nM of each integrin. […]

Experiment [2] addresses T1, αvβ3 integrin (Homo sapiens, UniProt P05106+P06756, DEL719-788).
T1 construct: purchased R&D Systems
Nature of the experiment: YSD binding of M-CSFM to αvβ3 integrin. The following applies: even at high concentrations of 200 nM. Here is the method:
as §1, with “temperature. After an additional washing step, cells were labeled with secondary PE anti mouse (Sigma-Aldrich, St. Louis, MO, USA) and goat anti human Fc FITC antibodies (Sigma-Aldrich) for 30 min at 4° C. in the dark. For binding analysis of M-CSFRGD libraries to integrin, the experiment was performed with integrin binding buffer (IBB; 20 mM Tris, pH7.5, 2 mM CaCl2, 100 mM NaCl, 1 mM MgCl2, and 1 mM MnCl2)+1% BSA. The yeast cells were incubated with chicken anti c-myc and different concentrations of soluble human αvβ3 integrin (R&D Systems, Minneapolis, MN, USA) for 1 h.” for “temperature.”

Experiment [3] concerns the target c-kit receptor (Homo sapiens, UniProt P10721). The experiment is described as follows: YSD binding specificity test against c-kit receptor. Conditions: even at high concentrations of 200 nM; data not shown. As to the method: Next, a binding specificity of the M-CSFM to c-FMS was evaluated. For this purpose, the ability of M-CSFM to bind a c-kit receptor, which is a c-FMS structural homolog, was utilized.

T1 sequence (P06756 31-992 limits assumed, stated change not applied): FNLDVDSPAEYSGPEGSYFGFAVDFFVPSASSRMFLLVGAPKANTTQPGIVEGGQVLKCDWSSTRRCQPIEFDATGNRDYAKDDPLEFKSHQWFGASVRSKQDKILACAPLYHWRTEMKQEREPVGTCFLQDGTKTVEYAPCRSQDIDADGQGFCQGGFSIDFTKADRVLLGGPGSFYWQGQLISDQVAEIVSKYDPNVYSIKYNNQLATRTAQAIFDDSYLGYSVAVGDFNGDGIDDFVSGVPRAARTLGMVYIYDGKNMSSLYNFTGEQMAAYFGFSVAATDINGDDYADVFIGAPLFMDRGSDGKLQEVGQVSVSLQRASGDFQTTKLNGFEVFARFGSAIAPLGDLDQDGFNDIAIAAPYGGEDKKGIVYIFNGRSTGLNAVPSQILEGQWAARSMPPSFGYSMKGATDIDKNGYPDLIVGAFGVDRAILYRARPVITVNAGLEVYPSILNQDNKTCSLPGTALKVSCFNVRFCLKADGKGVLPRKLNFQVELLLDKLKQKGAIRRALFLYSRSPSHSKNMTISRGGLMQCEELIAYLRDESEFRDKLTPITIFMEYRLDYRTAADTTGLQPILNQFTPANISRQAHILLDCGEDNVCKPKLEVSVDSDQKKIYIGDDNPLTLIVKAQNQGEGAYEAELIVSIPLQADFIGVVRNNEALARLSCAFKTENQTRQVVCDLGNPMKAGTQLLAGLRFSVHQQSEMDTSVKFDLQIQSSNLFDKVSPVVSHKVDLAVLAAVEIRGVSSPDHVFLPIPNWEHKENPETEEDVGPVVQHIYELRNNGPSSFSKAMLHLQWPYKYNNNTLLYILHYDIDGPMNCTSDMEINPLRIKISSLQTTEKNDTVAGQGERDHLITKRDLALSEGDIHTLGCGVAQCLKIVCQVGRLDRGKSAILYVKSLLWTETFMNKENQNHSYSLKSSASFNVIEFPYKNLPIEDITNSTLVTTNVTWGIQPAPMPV
T1 sequence (P05106 27-718 limits assumed, stated change not applied): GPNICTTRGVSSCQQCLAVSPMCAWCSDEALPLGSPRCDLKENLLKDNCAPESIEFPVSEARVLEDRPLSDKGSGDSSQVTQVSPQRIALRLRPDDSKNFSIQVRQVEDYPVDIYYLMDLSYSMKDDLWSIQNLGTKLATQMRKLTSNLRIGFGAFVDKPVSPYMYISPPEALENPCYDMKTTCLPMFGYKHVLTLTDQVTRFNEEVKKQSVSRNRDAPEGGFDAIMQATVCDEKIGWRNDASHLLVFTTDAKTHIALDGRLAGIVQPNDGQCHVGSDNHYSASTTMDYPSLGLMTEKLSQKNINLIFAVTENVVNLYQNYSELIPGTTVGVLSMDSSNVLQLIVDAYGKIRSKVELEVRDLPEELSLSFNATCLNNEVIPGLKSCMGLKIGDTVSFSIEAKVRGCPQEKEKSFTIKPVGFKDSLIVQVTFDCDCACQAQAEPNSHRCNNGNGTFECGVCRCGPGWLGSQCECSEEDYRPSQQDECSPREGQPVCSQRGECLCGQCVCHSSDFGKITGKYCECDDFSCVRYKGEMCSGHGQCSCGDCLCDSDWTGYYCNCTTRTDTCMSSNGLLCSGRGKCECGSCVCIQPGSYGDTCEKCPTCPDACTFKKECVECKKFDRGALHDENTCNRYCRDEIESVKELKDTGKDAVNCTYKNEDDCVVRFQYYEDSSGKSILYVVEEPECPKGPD
Sequence of c-kit receptor (P10721 26-976): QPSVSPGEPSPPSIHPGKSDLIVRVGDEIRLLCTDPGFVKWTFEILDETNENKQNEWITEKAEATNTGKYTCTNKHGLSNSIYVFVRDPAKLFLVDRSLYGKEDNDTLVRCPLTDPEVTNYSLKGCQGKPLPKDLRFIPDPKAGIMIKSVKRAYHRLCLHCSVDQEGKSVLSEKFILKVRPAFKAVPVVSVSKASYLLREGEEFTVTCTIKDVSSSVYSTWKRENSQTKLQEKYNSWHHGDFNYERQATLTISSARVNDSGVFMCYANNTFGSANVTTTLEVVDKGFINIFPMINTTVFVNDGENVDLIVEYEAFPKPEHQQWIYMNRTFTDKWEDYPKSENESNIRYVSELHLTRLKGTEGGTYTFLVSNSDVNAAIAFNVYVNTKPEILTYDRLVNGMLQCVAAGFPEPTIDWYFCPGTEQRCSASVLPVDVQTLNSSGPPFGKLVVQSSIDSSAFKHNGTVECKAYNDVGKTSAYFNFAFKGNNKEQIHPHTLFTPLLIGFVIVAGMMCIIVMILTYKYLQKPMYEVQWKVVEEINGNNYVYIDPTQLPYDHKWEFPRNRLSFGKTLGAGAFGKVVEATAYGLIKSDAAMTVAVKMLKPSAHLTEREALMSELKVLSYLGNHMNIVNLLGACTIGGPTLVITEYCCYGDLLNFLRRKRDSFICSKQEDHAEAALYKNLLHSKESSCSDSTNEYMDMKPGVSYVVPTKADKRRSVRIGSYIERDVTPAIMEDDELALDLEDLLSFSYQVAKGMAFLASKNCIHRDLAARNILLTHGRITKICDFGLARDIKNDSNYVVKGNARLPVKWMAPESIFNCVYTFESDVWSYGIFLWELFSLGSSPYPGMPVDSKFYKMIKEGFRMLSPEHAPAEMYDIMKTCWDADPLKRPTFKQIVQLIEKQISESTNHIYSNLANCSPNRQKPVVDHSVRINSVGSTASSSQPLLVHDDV

B1: 5.6: bispecific M-CSFRGD variant from sort five; M-CSFM loop replaced by XXXRGDXXX motif; binds c-FMS and αvβ3 integrin (protein)
chain: EEVSEYCSHMIGSGHLQSLQRLIDTYPRGDMCSITFEFVDQEQLKDPVCYLKKAFLLVQDIMEDTMRFRDNTPNAIAIVQLQELSLRLKSCFTKDYEEHDKACVRTFYETPLQLLEKVKNVFNETKNLLDKDWNIFSKNCNNSFAECSSQGHERQSEGS
modifications: left off: small tags and cut ends
In the case of B1, the “relative affinity for c-FMS and αvβ3 integrin” value in experiment [1] is on record as “higher affinity for c-FMS than for αvβ3 integrin”. Also, the “simultaneous binding of c-FMS and αvβ3 integrin” value in experiment [1] (data not shown) is “could simultaneously bind c-FMS and αvβ3 integrin”.

B2: M-CSFM: 158 amino acid M-CSF with cysteine at position 31 replaced by serine (SEQ ID NO: 2) (protein)
chain: EEVSEYCSHMIGSGHLQSLQRLIDSQMETSSQITFEFVDQEQLKDPVCYLKKAFLLVQDIMEDTMRFRDNTPNAIAIVQLQELSLRLKSCFTKDYEEHDKACVRTFYETPLQLLEKVKNVFNETKNLLDKDWNIFSKNCNNSFAECSSQGHERQSEGS
Consider B2, for which the “binding to αvβ3 integrin” value in experiment [2] is listed as “did not bind”. Moreover, the “binding to c-kit receptor” value in experiment [3] was “did not bind”.
